These results are taken from patent US7943569B2, “Composition and method for providing localized delivery of a therapeutic agent” (The Board of Trustees of the University of Illinois, priority 2005, dated 2011).

Like-named read-outs stand apart in the source and are kept apart here. Primed or numbered codes have the meaning given here. Ends that are not written are not given here. * marks the point of attachment. fluorescein = Lys* = fluorescein containing lysine; fluorescein″ = fluorescein-labelled lysine (Lys*)

The subject of assay [1] is malignant glioma cell line (U-87MG). The assay is described as follows: Cell viability of U-87MG glioma cells, modified MTT assay, 24 hours. Type of assay: cell-based. The note with it: U-87MG cell viability (FIG. 1). On the procedure: As a model for cancer, the malignant glioma cell line (U-87MG, ATCC #HTB-14) was grown and maintained in Eagles Minimum Essential Media with 10% fetal bovine serum, 1% penicillin/streptomycin, sodium pyruvate (110 mg/L), L-Glutamine (292 mg/L), and nonessential amino acids at 37° C. in 5% CO2. One day prior to the test, cells were plated at 50,000 cells/mL in supplemented media on 96-well plates. Peptides at different concentrations were incubated with cells for 24 hours. Cell viability, with respect to the untreated control, was determined using a modified MTT assay (CELL TITER […] 96® Aqueous One Solution Cell Proliferation Assay; PROMEGA, Madison, Wis.) (Barltrop, et al. (1991) Bioorg. Med. Chem. Lett. 1:661).
To synthesize Pt-complexes, peptides were dissolved in water and equimolar amounts of potassium tetrachloroplatinate (K2PtCl4) (Acros Organics, Morris Plains, N.J.) were added to each peptide solution. The solutions were stirred for 20 hours and lyophilized.
On the technique in general: Tetrazolium dyes change colour on reduction, which living cells bring about.

Assay [2] concerns the target T1, MMP-2 (Homo sapiens, UniProt P08253).
T1 construct: purchased CALBIOCHEM (San Diego, Calif.)
T1 sequence (P08253 110-660): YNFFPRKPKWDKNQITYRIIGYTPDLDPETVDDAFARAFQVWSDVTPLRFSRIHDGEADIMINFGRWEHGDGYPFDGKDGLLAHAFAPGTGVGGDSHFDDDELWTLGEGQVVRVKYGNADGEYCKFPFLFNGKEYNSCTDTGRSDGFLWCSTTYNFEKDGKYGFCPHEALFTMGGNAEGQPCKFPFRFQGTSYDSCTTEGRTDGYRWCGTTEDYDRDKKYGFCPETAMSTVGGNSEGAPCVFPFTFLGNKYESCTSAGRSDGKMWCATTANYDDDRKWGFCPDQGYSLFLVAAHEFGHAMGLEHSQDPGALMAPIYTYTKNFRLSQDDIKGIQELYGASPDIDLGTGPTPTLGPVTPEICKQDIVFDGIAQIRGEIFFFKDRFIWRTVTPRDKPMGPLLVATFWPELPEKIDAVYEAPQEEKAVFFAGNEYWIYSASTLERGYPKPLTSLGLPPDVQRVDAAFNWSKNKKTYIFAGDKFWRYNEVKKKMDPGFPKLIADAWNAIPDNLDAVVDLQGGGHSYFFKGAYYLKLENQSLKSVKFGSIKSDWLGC
The assay is described as follows: Peptide cleavage by activated MMP-2, HPLC. It counts as biochemical. The conditions noted are these: for Km / Vmax / kcat: MMP-2 10 nM, protease buffer pH 7.4. How it is done: (§1) Prospective MMP substrate peptides, Lys*-Pro-Ala-Gly-Leu-Leu-Gly-Cys (SEQ ID NO:2), Lys*-Ala-Gly-Leu-Leu-Cys (SEQ ID NO:32), and Lys*-Gly-Leu-Cys (SEQ ID NO:33), were dissolved in a protease buffer containing Tris-HCl (50 mM), NaCl (0.2 M), CaCl2.2H2O (10 mM), BRIJ-35 (0.05%) and ZnSO4.7H2O (50 μM) (pH=7.4). Activated MMP-2 or MMP-9 was added to the peptide solution at a final concentration of 10 nM. At predetermined time intervals, the reaction was stopped by adding EDTA solution (25 mM). Samples were analyzed using reverse phase high pressure liquid chromatography (HPLC). The HPLC system was composed of a gradient pump connected to a scanning fluorescence detector and a photodiode array detector. Peptides were separated on a ZORBAX Extend-C18 (80 Å, 3.6 μm, 4.6 mm×150 mm) column (Agilent Technologies, Palo Alto, Calif.) using a gradient of 30%-70% of 0.1% trifluoroacetic acid in acetonitrile against 0.1% trifluoroacetic acid in water over a period of 15 minutes at a flow rate of 1 mL/minute. The expected cleaved fragments, Lys*-Pro-Ala-Gly (SEQ ID NO:34), Lys*-Ala-Gly, and Lys*-Gly, were synthesized to confirm HPLC retention times. The HPLC retention time of each fragment was compared to that of the cleaved fragment and the intact peptide using the HPLC conditions described above.

The target of another assay is T2, MMP-9 (Homo sapiens, UniProt P14780).
T2 construct: purchased CALBIOCHEM (San Diego, Calif.)
In words: Peptide cleavage by activated MMP-9, HPLC. The conditions noted are these: for Km / Vmax / kcat: MMP-9 10 nM, protease buffer pH 7.4. Type of assay: biochemical. How it is done:
as §1

In assay [3] the target is T1, MMP-2. The note with it: MMP-2, Turk et al. (2001); cited from earlier work.

T2 sequence (P14780 107-707 limits assumed): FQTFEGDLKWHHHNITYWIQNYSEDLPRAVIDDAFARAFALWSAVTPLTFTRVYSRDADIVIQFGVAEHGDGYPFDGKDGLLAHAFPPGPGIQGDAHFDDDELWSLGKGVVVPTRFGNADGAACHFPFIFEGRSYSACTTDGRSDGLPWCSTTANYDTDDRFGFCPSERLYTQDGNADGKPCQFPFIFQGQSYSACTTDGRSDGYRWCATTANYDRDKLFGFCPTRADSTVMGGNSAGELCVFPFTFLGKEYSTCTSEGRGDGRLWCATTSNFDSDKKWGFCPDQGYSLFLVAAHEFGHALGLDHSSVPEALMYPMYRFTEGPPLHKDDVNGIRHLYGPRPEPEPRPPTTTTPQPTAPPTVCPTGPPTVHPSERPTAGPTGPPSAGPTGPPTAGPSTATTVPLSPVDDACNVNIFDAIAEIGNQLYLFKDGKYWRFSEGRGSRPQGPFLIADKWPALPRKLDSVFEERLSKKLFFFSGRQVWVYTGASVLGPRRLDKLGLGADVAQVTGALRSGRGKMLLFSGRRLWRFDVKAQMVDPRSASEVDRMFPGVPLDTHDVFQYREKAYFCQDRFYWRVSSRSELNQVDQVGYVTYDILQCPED

In the case of `N.N.[Cl][Pt][Cl]` [cisplatin], in assay [1], the IC50 (as a rule, the concentration that gives 50% inhibition) amounted to 46.9 ± 15 µM.

With `[Cl][Pt-2]([Cl])([Cl])[Cl].[K+].[K+]` [K2PtCl4, potassium tetrachloroplatinate], the IC50 in assay [1] stood at 70.7 ± 15 µM.

Consider “Lys*-Pro-Ala-Gly-Leu-Leu-Gly-Cys (K(fluorescein)PAGLLGC) [prospective MMP substrate peptide with fluorescein containing lysine (Lys*)]”, for which, in the assay with MMP-2 [2], the Michaelis-Menten constant (Km) (in general, the substrate concentration at which the rate is half of its maximum) was 1000 ± 500 µM; the Vmax is on record as 270 ± 120 (M/s) × 10^−9; the kcat (usually the maximal rate divided by the concentration of active sites) was 10.7 ± 4.8 s⁻¹. Also, in the assay with MMP-2 [2] (cleaved by MMP-2, HPLC comparison with synthesized fragment), the cleavage site entry is “cleaved between glycine and leucine”. For the same molecule, in the assay with MMP-9, the Km turned out to be 400 ± 100 µM, the Vmax is 240 ± 50 (M/s) × 10^−9 and the kcat was determined as 9.6 ± 2.1 s⁻¹. The cleavage site result with MMP-9 (cleaved by MMP-9, HPLC comparison with synthesized fragment) is “cleaved between glycine and leucine”.

Take “GPAGLLG [parent peptide from which the three peptides were designed]”: the cleavage site result with MMP-2 [3] is “cleaved between glycine and leucine”.

On to “Lys*-Gly-Leu-Cys (K(fluorescein″)GLC) [prospective MMP substrate peptide with fluorescein containing lysine (Lys*)]”, for which, in the assay with MMP-2 [2], the Km is 81 ± 20 µM, the Vmax was 0.88 ± 0.1 (M/s) × 10^−9 and the kcat came to 0.035 ± 0.006 s⁻¹. In addition, in the assay with MMP-9, the Km worked out at 600 ± 100 µM, the Vmax is listed as 5.3 ± 1 (M/s) × 10^−9 and the kcat was found to be 0.21 ± 0.04 s⁻¹.

On to “Lys*-Ala-Gly-Leu-Leu-Cys (K(fluorescein)AGLLC) [prospective MMP substrate peptide with fluorescein containing lysine (Lys*)]”, for which, in the assay with MMP-2 [2], the Km was 1400 ± 400 µM, the Vmax is reported as 6.02 ± 2.1 (M/s) × 10^−9 and the kcat was 0.24 ± 0.08 s⁻¹. Moreover, in the assay with MMP-9, the Km was 160 ± 100 µM, the Vmax is recorded as 0.99 ± 0.2 (M/s) × 10^−9 and the kcat came to 0.04 ± 0.01 s⁻¹.
